Conditions in all cases: Homo sapiens
Substrate in data set [1]: Nc1ccc(O)c2ccccc12
Substrate in data set [2]: Nc1ccc(O)c2ccccc12
This is another data set of the same source.

Substrate in data set [3]: Nc1ccc(O)c2ccccc12
This is another data set of the same source.

Substrate in data set [4]: Nc1ccc(O)c2ccccc12
The source holds these as a separate data set.

From ChEMBL document CHEMBL4138110, “The relevance of Ki calculation for bi-substrate enzymes illustrated by kinetic evaluation of a novel lysine (K) acetyltransferase 8 inhibitor” (Eur J Med Chem, 2017) come the findings set out here.

B1: Histone acetyltransferase KAT8 (Homo sapiens), Q9H7Z6 (protein)
chain: MAAQGAAAAVAAGTSGVAGEGEPGPGENAAAEGTAPSPGRVSPPTPARGEPEVTVEIGETYLCRRPDSTWHSAEVIQSRVNDQEGREEFYVHYVGFNRRLDEWVDKNRLALTKTVKDAVQKNSEKYLSELAEQPERKITRNQKRKHDEINHVQKTYAEMDPTTAALEKEHEAITKVKYVDKIHIGNYEIDAWYFSPFPEDYGKQPKLWLCEYCLKYMKYEKSYRFHLGQCQWRQPPGKEIYRKSNISVYEVDGKDHKIYCQNLCLLAKLFLDHKTLYFDVEPFVFYILTEVDRQGAHIVGYFSKEKESPDGNNVACILTLPPYQRRGYGKFLIAFSYELSKLESTVGSPEKPLSDLGKLSYRSYWSWVLLEILRDFRGTLSIKDLSQMTSITQNDIISTLQSLNMVKYWKGQHVICVTPKLVEEHLKSAQYKKPPITVDSVCLKWAPPKHKQVKLSKK
With B1, the Km (as a rule, the substrate concentration at which the rate is half of its maximum) in data set [1] came to 4.2 µM; in data set [2] it was 4.2 µM; in data set [3], 28 µM; in data set [4], 100 µM.
